Experiment: soluble on expression in E. coli; label from the status in PepcDB or PDB records

Row | Sequence | soluble on expression in E. coli
1 | MLGSSSLSIRTTDDKSLFARTMDFTMEPDSKVIIVPRNYGIRLLEKENVVINNSYAFVGMGSTDITSPVLYDGVNEKGLMGAMLYYATFATYADEPKKGTRGINPVYVISQVLGNCVTVDDVIEKLTSYTLLNEANIILGFAPPLHYTFTDASGESIVIEPDKTGITIHRKTIGVMTNSPGYEWHQTNLRAYIGVTPNPPQDIMMGDLDLTPFGQGAGGLGLPGDFTPSARFLRVAYWKKYTEKAKNETEGVTNLFHILSSVNIPKGVVLTNEGKTDYTIYTSAMCAQSKNYYFKLYDNSRISAVSLMAENLNSQDLITFEWDRKQDIKQLNQVNVMS | soluble
2 | MLGVGKIGGAIVKSLLSCGAVVTGTGRRRETLERISRLGAEATVDNRLAAKVSDVVILSVKPYQLPRLLEEIRDVMEGKIVVSVVAGVRLSTLSRALEGSHVYRAMPNINALIGRSTTAVAEYTGDKRASFVESILSCMGSVYWIPEEWMDVWTALVGSMPAYVAVMIDSLTLGGVSAGLPREVAFKAVIDTLGATAEHLGKRDIHPSVLRDEVTTPAGTTIEGLKVIEGEGVDAALIRTVEAAARRAAAIGEAIDNEVRRSLNLRAAALEHHHHHH | not soluble
3 | MLHILINFINFGKMFTLGNIMKFKKIYIELSDICGLKCDFCPSQKGIRGVMSEEKFQNLAYEISNKAELFTFHLLGDPLLLPNLENYLKIAKDEAMKLEITTSGFYLNSKNQALLLGYENIHQINISLMSFLSQSKISLEQYFKPILELCKKHLEQKSLSFINLRLWNLDANFKAPKSNLKIYEFLAKEFEAKIDANLSKNRLQRHILLHQNKLFKWPNLKDEPLYKKGKCHALKEQIGILSDGSLVPCCLDTKADINLGNVFENNFDKLFRSPRIKMMKKAFEEDKRIEKLCQTCEFFKARLGD | not soluble
4 | MLHITAAKARAGGQIGGVFCLAQCSLNVLVSGMQTQPLPPLISARPVGRGARSNDAGRFEPLERVAEHDGWEREEELPPLRTQVSLETARSLISYNRSPDLPFDRSINPYRGCEHGCSYCFARPSHAYLGLSPGLDFETRLVARPNAAEVLRAELSARRYKVAPIAIGTNTDPYQPLEKTHAITRACLQVLAEFNHPVAIVTRGALIERDLDILAPMAARGLVRVGISLTTLDAALARRMEPRAPSPKRRLAMIRALNGAGVPVRVMTSPLIPGLTDHELESLLAAGAEAGADTASWIMLRLPREVSPLWQEWLAEHAPARAAKVMARLREMHGGRDYDPRWGHRMRGEGEYAQMIAKRFRAACKRIGLAQEAPALRCDLFRVPPQPGDQLSLF | not soluble
5 | MLHIVKHLEKLPLLSAYLLDGDVVLLTENAVYAAAVHSPYQASINDQNLWLVLYEDLHARGWLEKCDPRISVVTMSDFVDLTVTHDKSITW | not soluble
6 | MLIEERLAKIQKIVNEQKSISMEALAEQVSVSKDTIRRDLIRLEKEGHLKRTHGGAISVQSEATIYDYAQRIVKHPEKKQAIAQKVWANIPKQASIFFDSSTTVEAAIRAMENSPIHAITNSLSHALLLAQMDQTKITVLPGQLHKQQLFLFGAETVAKVGEFAPDYTLLGVFALSEQGLFIHTEEEGQVKRRMIQQGKQVIALADQTKLNKTGLFKICELTEIDCLVTDTRPDEKFCEQLAQAGVTLIVADELEHHHHHH | soluble
7 | MLIEGANSHGSGILLQRHGNTYVILTAYHVIEKGGQYTVKTVDGQRYAVRPSSIRRLPSVDLATLEIESNRDYTLATLGNSGEAVEGMPVFVAGFPAQEASVLGGIYQFTEGRLTANASRPIQDGYALVYSNPTLPGMSGGPVLDENGRLIGIHGSADIASTLVQEGSGASTVFVKRGFNLGIPIHTYLGLATPSRQTTVLPALASMKAADYFLAAEVAFRRKNFAAAIENYSQAIARNPNYSEAYLGRAVAQIFALVPNQDFDQLGEELGTKYLSRLTQGNPLLKDAFPPNPPTPLLETFMRTMAERPGTIQPDIAKAIALNPQYTEAYGVSSFLNLLLGNFGNAIAESERALALRPNNSDLQMIHSLALFLSGDFRRSIAVFDRLITANPQNTDYHLLRGVAAFMMGDYALSRPSWTALTQLTPRNPMPFALRGVTYLLEENFKASLPDLRQAAELYRQQGDMQSYNQMMQAIRQIESRLEHHHHHH | not soluble
8 | MLIILLLTVLTVYLVYELYWKRRNFPPGPCPLPVFGNLLSIANPPPGYEAFERWTKKYGDIYTFWIGNTPHIMINTWDKIKETYIRDAETYTNKVRLPALDLFRGGEYGIIDSNGATWREHRRFALSTMRDFGLGKNLMQENILMEVQDVFARLDAKLGSETDIPEVFDHAVANVVNQLLFGYRFVGPKESEYQELKRIIEAPTDLFGKPHMFLAMNIPVIAKLMPEFMYEGPFKDFRDTAFAFFNKQIEAHRQEVDLNDLNSESTDFVETFLKEQKRRESEGDSETFSNVQLSNVCMDLWFAGLNTTTNTITWAISYILHHPEVQDKVHEEMDKVIGSDRLITTADKNDLPYFNAFINEAQRGINIVPLNLQHATTRDTVINGFKIPKGTGVVAQISTVMNNEEVFPDPHTFNPDRFIDEHGKLKRVEELAPFSVGKRSCPGEGLARMELFLFIANFLNRYKIYPSKEGPPSMDKSNGALIAPRLFSATLKRRS | not soluble
9 | MLIPARMSEAEEQRWVTVMLDKLAAQESKRRLGDAELAERAERLSLQYFDGRARPTAVRWVTNQNTRWGSCTPSEGSIRLSHRLQGMPEYVVDYVLLHELAHLLVPGHGPRFWRLLEAYPRTERARGYLEGVVAADRLPHQPAPGAELEHHHHHH | not soluble
10 | MLIVGINGSPKKEGNTKYLINTVLEEAKSQGVETMVLEVGELLNSVKNPFCVVCSNPCSSICYKGTKLEEAYEILKKADAIVMGSPVYFGSVSAQLKAFFDKTRKLRSEKALYNKFACGVTVGGARFGGQETTMKALHDIMLVHGMTIVGDGYVGDDCGHHGVCAQQPADKDEFAIKRAKILGRRLVDVCKKAGA | not soluble
11 | MLKADYIPYTLKFKEPAGTSRGVLHTKQTYFVRVYDDTFPSRAGYGEAALFRGLSAEEGADYEERLAEVCNGVCGFTPDAWQAYPSLCFGMETALADFEGGGLLFPSAFTSGEAGIPINGLI | not soluble
12 | MLKFRTVHGGLRLLGIRRTSTAPAASPNVRRLEYKPIKKVMVANRGEIAIRVFRACTELGIRTVAIYSEQDTGQMHRQKADEAYLIGRGLAPVQAYLHIPDIIKVAKENNVDAVHPGYGFLSERADFAQACQDAGVRFIGPSPEVVRKMGDKVEARAIAIAAGVPVVPGTDAPITSLHEAHEFSNTYGFPIIFKAAYGGGGRGMRVVHSYEELEENYTRAYSEALAAFGNGALFVEKFIEKPRHIEVQILGDQYGNILHLYERDCSIQRRHQKVVEIAPAAHLDPQLRTRLTSDSVKLAKQVGYENAGTVEFLVDRHGKHYFIEVNSRLQVEHTVTEEITDVDLVHAQIHVAEGRSLPDLGLRQENIRINGCAIQCRVTTEDPARSFQPDTGRIEVFRSGEGMGIRLDNASAFQGAVISPHYDSLLVKVIAHGKDHPTAATKMSRALAEFRVRGVKTNIAFLQNVLNNQQFLAGTVDTQFIDENPELFQLRPAQNRAQKLLHYLGHVMVNGPTTPIPVKASPSPTDPVVPAVPIGPPPAGFRDILLREGPEGFARAVRNHPGLLLMDTTFRDAHQSLLATRVRTHDLKKIAPYVAHNFSKLFSMENWGGATFDVAMRFLYECPWRRLQELRELIPNIPFQMLLRGANAVGYTNYPDNVVFKFCEVAKENGMDVFRVFDSLNYLPNMLLGMEAAGSAGGVVEAAISYTGDVADPSRTKYSLQYYMGLAEELVRAGTHILCIKDMAGLLKPTACTMLVSSLRDRFPDLPLHIHTHDTSGAGVAAMLACAQAGADVVDVAADSMSGMTSQPSMGALVACTRGTPLDTEVPMERVFDYSEYWEGARGLYAAFDCTATMKSGNSDVYENEIPGGQYTNLHFQAHSMGLGSKFKEVKKAYVEANQMLGDLIKVTPSSKIVGDLAQFMVQNGLSRAEAEAQAEELSFPRSVVEFLQGYIGVPHGGFPEPFRSKVLKDLPRVEGRPGASLPPLDLQALEKELVDRHGEEVTPEDVLSAAMYPDVFAHFKDFTATFGPLDSLNTRLFLQGPKIAEEFEVELERGKTLHIKALAVSDLNRAGQRQVFFELNGQLRSILVKDTQAMKEMHFHPKALKDVKGQIGAPMPGKVIDIKVVAGAKVAKGQPLCVLSAMKMETVVTSPMEGTVRKVHVTKDMTLEGDDLILEIE | soluble
13 | MLKIISANVNGIRSAYKKGFYEYIAASGADIVCVQELKAQEADLSADMKNPHGMHGHWHCAEKRGYSGVAVYSKRKPDNVQIGMGIEEFDREGRFVRCDFGRLSVISLYLPSGSSAEERQQVKYRFLDAFYPMLEAMKNEGRDIVVCGDWNIAHQNIDLKNWKGNQKNSGFLPEEREWIGKVIHKLGWTDMWRTLYPDVPGYTWWSNRGQAYAKDVGWRIDYQMVTPELAAKAVSAHVYKDEKFSDHAPLVVEYDYAAE | soluble
14 | MLKILKRIVQDVTAASDLKEALGILVQRINTAINAEAVSVYLIDNKNAEYVLIATEGLNKQAEFRVRIALDCGLIGLIGRREEPINIENAPSHPDFYHNPLIGEDHLNAFLGVPIIQHRKLYGVLVVQQLEQRYFDDAEESFLITLAAQLGGIIAHAEATGELAELTQ | not soluble
15 | MLKISNSVTLQEWEIQLTPIRAQGNGGQNVNKVATAIHLRFDIHHSSLPEFYKERLLALSDSRITKDGVVIIKAQQFRTQEKNKEDALNRLQELIKAAALQDKKRIKTKPTRASQRRRLDSKNKQGAKKQQRKKVLYLEHHHHHH | not soluble
16 | MLKKFFLPDEFVKNIFHITPEKLKERNVKGIITDLDNTLVEWDRPNATPRLIEWFEEMKEHGIKVTIVSNNNERRVKLFSEPLGIPFIYKARKPMGKAFNRAVRNMELKKEDCVVIGDQLLTDVLGGNRNGYHTILVVPVASSDGFITRFNRQVERRILSALKRKGHIQWEELEHHHHHH | soluble
17 | MLKKRKLGRRIGEIQAGEKLVFQAAIEDKDLLLYLGLTDDANPLYIQHDYASQTPFGKPVVPPVMLTGMITSAVSKYLPGPGSYITRQDLRFLRPVYHYETLEFLLEVADVDEAGHCVTLSVMATRGAETVLDGTLSVCPPHTLPRLDGRVLENF | not soluble
18 | MLKLFSAFRKNKIWDFNGGIHPPEMKTQSNGTPLRQVPLAQRFVIPLKQHIGAEGELCVSVGDKVLRGQPLTRGRGKMLPVHAPTSGTVTAIAPHSTAHPSALAELSVIIDADGEDCWIPRDGWADYRTRSREELIERIHQFGVAGLGGAGFPTGVKLQGGGDKIETLIINAAECEPYITADDRLMQDCAAQVVEGIRILAHILQPREILIGIEDNKPQAISMLRAVLADSNDISLRVIPTKYPSGGAKQLTYILTGKQVPHGGRSSDIGVLMQNVGTAYAVKRAVIDGEPITERVVTLTGEAIARPGNVWARLGTPVRHLLNDAGFCPSADQMVIMGGPLMGFTLPWLDVPVVKITNCLLAPSANELGEPQEEQSCIRCSACADACPADLLPQQLYWFSKGQQHDKATTHNIADCIECGACAWVCPSNIPLVQYFRQEKAEIAAIRQEEKRAAEAKARFEARQARLEREKAARLERHKSAAVQPAAKDKDAIAAALARVKEKQAQATQPIVIKAGERPDNSAIIAAREARKAQARAKQAELQQTNDAATVADPRKTAVEAAIARAKARKLEQQQANAEPEQQVDPRKAAVEAAIARAKARKLEQQQANAEPEEQVDPRKAAVEAAIARAKARKLEQQQANAEPEQQVDPRKAAVEAAIARAKARKREQQPANAEPEEQVDPRKAAVEAAIARAKARKLEQQQANAVPEEQVDPRKAAVAAAIARAQAKKAAQQKVVNEDLEHHHHHH | soluble
19 | MLKPLGDRVVIELVQAEEKTASGIVLPDTAKEKPQEGKVIAVGTGRVLENGERVALEVAAGDLIIFSKYAGTEVKYEGTDYLILRESDILAVIG | not soluble

— the DeepSol protein solubility set
